According to the supplement of paper PMC9732359:
± gives the uncertainty stated by the source.

Assay: protein stability index of a GFP-peptide fusion (yeast GPS) (PSI 1-4); higher = more stable; sorted into four equal gates, so the index is relative within each strain
Method in brief: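 Sequencing reads from sorted gates were used to score each peptide. The library consisted of tiled 17-residue yeast protein peptides fused downstream of GFP on a Cherry-expressing plasmid, pooled and carried in yeast. Mid-log cultures in leucine-free medium were split into four equal gates by GFP/Cherry ratio, and each gate's plasmids were PCR-amplified and Illumina-sequenced. The protein stability index adds up, over all gates, the read frequency multiplied by the gate number.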

Row | Sequence | protein stability index (doa10∆) | protein stability index (pdr5∆) | protein stability index (ubr1∆) | protein stability index (san1∆)
1 | KISLRDICLKLNLDSEQ [RPN3] | 3.46 ± 0.12 | 3.34 ± 0.093 | 3.32 ± 0.11 | 
2 | QQQQDLQQQQQVVTTVA [SNF6] | 1.55 ± 0.097 | 1.87 ± 0.083 | 1.54 ± 0.092 | 1.87 ± 0.23
3 | VSNSISRLGEENLPGLS [SNU114] | 1.14 ± 0.12 | 1.27 ± 0.15 | 1.07 ± 0.12 | 1.07 ± 0.15
4 | AGRKFKSRRCDDMLYYI [POP4] | 2.96 ± 0.094 | 3.06 ± 0.094 | 3.04 ± 0.068 | 3.21 ± 0.084
5 | EKPFNENRFQDTLLLLP [POP4] | 1.52 ± 0.11 | 2.58 ± 0.076 | 2.72 ± 0.1 | 1.52 ± 0.14
6 | LINLKISPLMKSQYNMV [SRB8] | 1.8 ± 0.085 | 1.59 ± 0.08 | 1.53 ± 0.12 | 2.07 ± 0.14
7 | INSPMPQQAQMQQAQFQ [SNF2] | 2.98 ± 0.093 | 2.98 ± 0.089 | 2.98 ± 0.083 | 3.11 ± 0.1
8 | LCLMTWKEVMFDPSKDV [CDC53] | 2.52 ± 0.079 | 2.72 ± 0.068 | 3.09 ± 0.073 | 2.83 ± 0.097
9 | HLLLGFQVSNVISLGPN [YJL039C/NUP192] | 1.37 ± 0.052 | 1.75 ± 0.049 | 1.8 ± 0.042 | 2.08 ± 0.088
10 | ASFYSVNTEKKTIEVTA [RPN3] |  | 1.29 ± 0.11 | 1.65 ± 0.28 | 
11 | PTVDEQRQYKVQLLLHI [SNF11] | 1.8 ± 0.12 | 1.95 ± 0.082 | 1.89 ± 0.065 | 1.82 ± 0.12
12 | LTVENKLQFETDRLSTT [SMC1] | 3.24 ± 0.077 | 3.05 ± 0.05 | 2.94 ± 0.044 | 2.84 ± 0.047
13 | NKIRNLELPLCPYCYKK [SIR2] | 2.52 ± 0.055 | 1.95 ± 0.062 | 1.98 ± 0.074 | 1.97 ± 0.069
14 | SKFYNMKQPYVFVKKHH [SSN2] | 1.58 ± 0.11 | 1.5 ± 0.11 | 1.28 ± 0.044 | 1.24 ± 0.14
15 | RSDREYPLLIRMSYGSH [SRP14] | 2.51 ± 0.077 | 2.3 ± 0.077 | 2.23 ± 0.061 | 1.92 ± 0.077
16 | PQALRVLRLKPGRKYTT [RPL16A] | 2.97 ± 0.044 | 3.05 ± 0.046 | 3.21 ± 0.05 | 3.13 ± 0.046
17 | NKIINWEISNPDFLSKY [NUT1] | 2.06 ± 0.047 | 2.41 ± 0.045 | 1.8 ± 0.05 | 2.11 ± 0.11
18 | EDEDDDDDDDEDEEEEE [QCR6] | 3.06 ± 0.049 | 3.5 ± 0.12 | 3.84 ± 0.17 | 3.4 ± 0.041
19 | MGKGTPSFGKRHNKSHT [RPL37A] | 3.24 ± 0.089 | 3.4 ± 0.067 | 3.02 ± 0.069 | 3.1 ± 0.077
20 | KSIRKDTVEEKKEEKLN [SIR4] | 2.96 ± 0.088 | 3.2 ± 0.12 | 2.76 ± 0.091 | 3.17 ± 0.065
21 | LKGLLQELKADSPFSLI [SRP72] | 1.43 ± 0.059 | 1.26 ± 0.059 | 1.45 ± 0.046 | 2.42 ± 0.092
22 | GPVGKECADLWPRVASN [RPL23A] | 3.2 ± 0.13 | 3.3 ± 0.11 | 3.23 ± 0.057 | 3.17 ± 0.1
23 | FTPKLIYDFITLFSSIE [ECM29] | 2.06 ± 0.073 | 2.1 ± 0.056 | 2.38 ± 0.053 | 2.17 ± 0.11
24 | IEDPNLSSNITFDGKPT [YMR153W/NUP53] | 3.02 ± 0.069 | 3.06 ± 0.056 | 3.17 ± 0.05 | 3.12 ± 0.043
25 | QLDGFSSDDRVKVLAAT [RPT5] | 2.88 ± 0.16 | 2.83 ± 0.096 | 1.58 ± 0.12 | 
26 | CVDDNSKISFIDEDKLY [SSN2] | 3.59 ± 0.25 | 2.98 ± 0.1 | 2.82 ± 0.29 | 
27 | PKALRFDRLVAGQIPTG [FAS2] | 2.15 ± 0.18 |  |  | 2.59 ± 0.25

Row | Sequence | protein stability index (doa10∆) | protein stability index (pdr5∆) | protein stability index (ubr1∆) | protein stability index (san1∆)
28 | ADNSGARNLYIIAVKGS [RPL23A] | 1.55 ± 0.049 | 1.63 ± 0.055 | 1.53 ± 0.057 | 1.33 ± 0.11
29 | SKGFVFNSVQKKSRSNL [YAR002W/NUP60] | 3.03 ± 0.2 |  |  | 2.96 ± 0.17
30 | GAISAVAATNTPIIFIG [SRP54] | 2.85 ± 0.085 | 3.42 ± 0.17 | 2.66 ± 0.086 | 2.69 ± 0.073
31 | PNSNKTHTEQNNPPKPQ [SNF2] | 2.78 ± 0.056 | 3.07 ± 0.083 | 3.06 ± 0.052 | 3.06 ± 0.069
32 | PSFTFGGSTTNNTTTTS [YOR098C/NUP1] | 3.04 ± 0.099 | 3.19 ± 0.091 | 3.36 ± 0.073 | 3.08 ± 0.056
33 | SAVKPRPLKLERGFACI [FAS1] | 2.16 ± 0.092 | 2.36 ± 0.064 | 2.42 ± 0.071 | 2.06 ± 0.082
34 | FLSQGLHVVITLLREVV [CSN12] | 1.49 ± 0.06 | 1.73 ± 0.059 | 2.13 ± 0.057 | 1.91 ± 0.093
35 | DLASSKEVLAKIVDLLA [RPN5] | 2.85 ± 0.21 | 3.43 ± 0.24 | 2.97 ± 0.11 | 2.98 ± 0.091
36 | KKTKFLSPSGHKTFLVA [RPL32] |  |  |  | 1.44 ± 0.27
37 | NSLIEEINERSETQTKD [YCG1] | 3.07 ± 0.12 | 3.33 ± 0.12 | 2.97 ± 0.1 | 3.17 ± 0.087
38 | PSFTDEQWITIESQMRD [PRP8] | 2.44 ± 0.067 | 2.66 ± 0.064 | 2.6 ± 0.053 | 2.8 ± 0.069
39 | SLLLSSVKESTGMSSMS [SRB4] | 1.96 ± 0.081 | 2.21 ± 0.078 | 1.22 ± 0.13 | 1.57 ± 0.21
40 | KTCQWYSEHLKPYDINV [DIS3] | 2.78 ± 0.28 | 2.95 ± 0.14 | 2.84 ± 0.072 | 2.74 ± 0.094
41 | TVDVSSPTENGVFDPAS [RPL22A] | 3.06 ± 0.054 | 3.17 ± 0.064 | 2.87 ± 0.042 | 2.69 ± 0.057
42 | ALYPQEARLRNLTYSSG [RPB2] | 2.39 ± 0.093 | 2.73 ± 0.1 | 2.49 ± 0.089 | 2.75 ± 0.085
43 | ADKKDDSESNSEPIDLI [ITC1] | 3.05 ± 0.079 | 3.32 ± 0.087 | 3.35 ± 0.081 | 3.02 ± 0.12
44 | DKGLLPYAIMETANEIL [RPO31] | 2.95 ± 0.14 | 2.71 ± 0.19 | 2.25 ± 0.13 | 
45 | LIQLQNIFKAEMDSVSK [CSN9] | 2.55 ± 0.08 | 2.54 ± 0.14 | 2.81 ± 0.13 | 
46 | IVSKEYEKNFEATLESK [ESC2] | 2.98 ± 0.24 | 3.08 ± 0.17 | 2.88 ± 0.18 | 2.9 ± 0.088
47 | EHTDVIDELIDTKLRLE [YIL149C/MLP2] | 2.87 ± 0.052 | 3 ± 0.059 | 2.7 ± 0.034 | 2.77 ± 0.039
48 | TSLITAVYGPRSIRGSF [MTR3] | 2.72 ± 0.073 | 2.72 ± 0.086 | 2.28 ± 0.058 | 2.55 ± 0.074
49 | DIAFVLNNLPYKNEDVT [YCS4] | 2.61 ± 0.053 | 3.08 ± 0.051 | 3 ± 0.065 | 2.94 ± 0.037
50 | QTPAEKHAFMGTLKKDL [RPL3] | 3.08 ± 0.17 | 3.21 ± 0.062 | 2.96 ± 0.093 | 2.96 ± 0.11
51 | QIDQLNRLLPNLPEEER [GRR1] | 2.62 ± 0.091 | 2.12 ± 0.064 | 2.51 ± 0.083 | 2.05 ± 0.098
52 | RLKFGHRLIATHTNLER [SNF2] | 2.41 ± 0.064 | 2.04 ± 0.054 | 2.5 ± 0.045 | 2.29 ± 0.067
53 | DLVRDIDIDKLIQLGVK [SRP72] |  |  |  | 2.71 ± 0.15
54 | IKPKPLWSGKQILSVAI [RPO21] | 1.62 ± 0.056 | 1.53 ± 0.047 | 1.62 ± 0.064 | 1.4 ± 0.073
